± gives the standard deviation of the averaged measurements.
B1: library; a variant is named by its letters at N, in order (parent)
chain: GCUGUCACCGAGAAACUGUGAAGUAUAUCUUAAACCUGGGCACUUAAAAGAUAUAUGGAGUUAGUAGUGCAACCUGCUCGGUCUGAUGAGUCCNNNNNNGGACGAAACAGC

Columns and labels:
cyclic di-GMP [1] = variants of: B1; test: normalized RNA/DNA level without ligand (relative to sTRSVctl = 100) (log10 (% of sTRSVctl)); HEK293T; ligand: cyclic di-GMP (c-di-GMP-II aptamer); higher = less ribozyme self-cleavage, higher mRNA level; details: reporter: mCherry (pCS4076), ligand present: no
Method in brief: (§1)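 Total RNA, extracted with EDTA 72 h after HEK293T cells were transfected with 4 µg per 6-well well of reporter-linked ribozyme switch library plasmids, was reverse-transcribed, amplified, barcoded and sequenced. Ligand, if used, was added 1 h before transfection. RNA level was derived from RNA reads divided by DNA reads and normalized to a spiked-in non-cleaving sequence or to the top sequences. This was multiplied by 100 and log10-transformed, with the top set of 25 sequences and a ≥100 DNA read minimum.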

cyclic di-GMP [2] = variants of: B1; test: normalized RNA/DNA level with ligand (relative to sTRSVctl = 100) (log10 (% of sTRSVctl)); HEK293T; ligand: cyclic di-GMP (c-di-GMP-II aptamer); ligand concentration (+) RNA-Seq: 1 mM; higher = less ribozyme self-cleavage, higher mRNA level; details: reporter: mCherry (pCS4076), ligand present: yes
Method in brief: as §1

Row | Variant | normalized RNA/DNA level without ligand (log10) (cyclic di-GMP [1]) | normalized RNA/DNA level with ligand (log10) (cyclic di-GMP [2])
1 | GCCGGC | 1.56 ± 0.035 | 1.74 ± 0.2
2 | GCCGGA | 1.55 ± 0.041 | 1.7 ± 0.11
3 | GCCGGG | 1.86 ± 0.089 | 1.93 ± 0.13
4 | UCCUUC | 1.71 ± 0.027 | 1.87 ± 0.11
5 | UCCUUG | 1.74 ± 0.036 | 1.86 ± 0.082
6 | UCCUUU | 1.75 ± 0.021 | 1.9 ± 0.073
7 | UCCUUA | 1.65 ± 0.025 | 1.83 ± 0.15
8 | UCGCGC | 1.73 ± 0.029 | 1.89 ± 0.093
9 | UCGCGU | 1.66 ± 0.083 | 1.84 ± 0.089
10 | UCGCGG | 1.78 ± 0.051 | 1.85 ± 0.14
11 | UCGCCG | 1.81 ± 0.091 | 1.95 ± 0.14
12 | UCGCCU | 1.76 ± 0.029 | 1.92 ± 0.12
13 | UCGCAU | 1.572 ± 0.0067 | 1.76 ± 0.092
14 | UCGCAG | 1.762 ± 0.0034 | 1.87 ± 0.13
15 | UCGCAC | 1.697 ± 0.015 | 1.86 ± 0.084
16 | GCGAGU | 1.53 ± 0.071 | 1.69 ± 0.11
17 | GCGAGG | 1.613 ± 0.016 | 1.75 ± 0.16
18 | GCGAGC | 1.55 ± 0.066 | 1.71 ± 0.04
19 | GCGAGA | 1.41 ± 0.14 | 1.63 ± 0.073
20 | ACGCCA | 1.675 ± 0.012 | 1.87 ± 0.09
21 | ACGCCG | 1.74 ± 0.046 | 1.85 ± 0.067
22 | ACGCCU | 1.64 ± 0.099 | 1.8 ± 0.036
23 | ACGAGC | 1.62 ± 0.049 | 1.76 ± 0.084
24 | ACGAGG | 1.5 ± 0.06 | 1.69 ± 0.1

Row | Variant | normalized RNA/DNA level without ligand (log10) (cyclic di-GMP [1]) | normalized RNA/DNA level with ligand (log10) (cyclic di-GMP [2])
25 | UCGACU | 1.6114 ± 7.1e-07 | 1.82 ± 0.12
26 | UCGACG | 1.73 ± 0.0042 | 1.87 ± 0.099
27 | UCGACA | 1.619 ± 0.0042 | 1.77 ± 0.12
28 | CCCGGA | 1.48 ± 0.075 | 1.72 ± 0.13
29 | CCCGGC | 1.75 ± 0.031 | 1.88 ± 0.07
30 | CCCGGG | 1.7187 ± 0.00061 | 1.91 ± 0.14
31 | CCCGUU | 1.74 ± 0.032 | 1.87 ± 0.089
32 | CCCGUG | 1.62 ± 0.024 | 1.8 ± 0.09
33 | GCGACA | 1.52 ± 0.091 | 1.73 ± 0.084
34 | GCGACU | 1.57 ± 0.018 | 1.73 ± 0.089
35 | CCCUCG | 1.75 ± 0.0059 | 1.91 ± 0.097
36 | CCCUCU | 1.62 ± 0.03 | 1.8 ± 0.12
37 | CCCCAG | 1.679 ± 0.008 | 1.82 ± 0.11
38 | CCCCAA | 1.59 ± 0.018 | 1.76 ± 0.14
39 | ACGAUA | 1.45 ± 0.05 | 1.68 ± 0.12
40 | ACGAUC | 1.56 ± 0.074 | 1.75 ± 0.085
41 | UCCUCU | 1.74 ± 0.06 | 1.87 ± 0.13
42 | CCCUGG | 1.74 ± 0.022 | 1.85 ± 0.03
43 | CCCUGU | 1.75 ± 0.043 | 1.87 ± 0.13
44 | CCCUGA | 1.61 ± 0.068 | 1.82 ± 0.068
45 | GCCGUU | 1.596 ± 0.013 | 1.77 ± 0.11
46 | GCCGUC | 1.54 ± 0.05 | 1.72 ± 0.12
47 | GCCGUA | 1.57 ± 0.099 | 1.74 ± 0.068
48 | UCCGGU | 1.67 ± 0.024 | 1.85 ± 0.1

Row | Variant | normalized RNA/DNA level without ligand (log10) (cyclic di-GMP [1]) | normalized RNA/DNA level with ligand (log10) (cyclic di-GMP [2])
49 | UCCGGG | 1.852 ± 0.016 | 1.93 ± 0.06
50 | UCCGGC | 1.79 ± 0.062 | 1.95 ± 0.12
51 | UCCGGA | 1.606 ± 0.0039 | 1.8 ± 0.096
52 | CCCGCC | 1.8 ± 0.13 | 1.92 ± 0.16
53 | CCCGCU | 1.74 ± 0.024 | 1.88 ± 0.11
54 | CCCGCG | 1.79 ± 0.046 | 1.9 ± 0.044
55 | CCCGCA | 1.66 ± 0.037 | 1.8 ± 0.08
56 | GCGCCG | 1.781 ± 0.0019 | 1.9 ± 0.1
57 | GCGCCC | 1.79 ± 0.025 | 1.89 ± 0.038
58 | GCGCCA | 1.699 ± 0.0061 | 1.84 ± 0.13
59 | GCGCCU | 1.774 ± 0.0061 | 1.88 ± 0.083
60 | UCCCCG | 1.82 ± 0.03 | 1.96 ± 0.11
61 | UCCCCC | 1.83 ± 0.088 | 1.92 ± 0.13
62 | UCCCCA | 1.79 ± 0.034 | 1.91 ± 0.2
63 | UCCCCU | 1.78 ± 0.033 | 1.9 ± 0.13
64 | UCGAAG | 1.52 ± 0.097 | 1.74 ± 0.058
65 | UCGAAU | 1.45 ± 0.1 | 1.69 ± 0.059
66 | UCGAAC | 1.62 ± 0.026 | 1.76 ± 0.1
67 | GCGAUG | 1.59 ± 0.06 | 1.79 ± 0.096
68 | GCGAUU | 1.47 ± 0.024 | 1.69 ± 0.19
69 | CCGCGA | 1.59 ± 0.053 | 1.76 ± 0.07
70 | CCGCGU | 1.69 ± 0.02 | 1.84 ± 0.17
71 | CCGCGC | 1.74 ± 0.026 | 1.87 ± 0.098
72 | CCGCGG | 1.73 ± 0.044 | 1.85 ± 0.056

Row | Variant | normalized RNA/DNA level without ligand (log10) (cyclic di-GMP [1]) | normalized RNA/DNA level with ligand (log10) (cyclic di-GMP [2])
73 | GCCAUG | 1.59 ± 0.051 | 1.79 ± 0.066
74 | CCCCGG | 1.83 ± 0.049 | 1.94 ± 0.11
75 | CCCCGU | 1.76 ± 0.021 | 1.88 ± 0.14
76 | CCCCGA | 1.6835 ± 0.00018 | 1.84 ± 0.13
77 | CCCCGC | 1.77 ± 0.03 | 1.88 ± 0.11
78 | ACCAUG | 1.61 ± 0.099 | 1.74 ± 0.057
79 | ACCAUU | 1.56 ± 0.032 | 1.79 ± 0.1
80 | ACCGGC | 1.784 ± 0.0037 | 1.92 ± 0.12
81 | ACCGGA | 1.51 ± 0.13 | 1.71 ± 0.056
82 | ACCGGU | 1.531 ± 0.003 | 1.76 ± 0.08
83 | ACCGGG | 1.84 ± 0.027 | 1.91 ± 0.12
84 | GCCCAC | 1.656 ± 0.0072 | 1.82 ± 0.14
85 | GCCCAA | 1.616 ± 0.011 | 1.77 ± 0.17
86 | GCCCAG | 1.9 ± 0.036 | 1.97 ± 0.095
87 | GCCCAU | 1.67 ± 0.036 | 1.85 ± 0.15
88 | CCGCCG | 1.738 ± 0.01 | 1.82 ± 0.1
89 | CCGCCU | 1.7 ± 0.0065 | 1.84 ± 0.099
90 | GCCUGG | 1.78 ± 0.061 | 1.91 ± 0.09
91 | GCCUGU | 1.69 ± 0.043 | 1.88 ± 0.12
92 | GCCUGC | 1.78 ± 0.032 | 1.86 ± 0.097
93 | GCCUGA | 1.6 ± 0.036 | 1.77 ± 0.069
94 | UCCUGG | 1.82 ± 0.057 | 1.91 ± 0.14
95 | UCCUGC | 1.79 ± 0.062 | 1.91 ± 0.053
96 | UCCUGU | 1.72 ± 0.018 | 1.88 ± 0.059

Row | Variant | normalized RNA/DNA level without ligand (log10) (cyclic di-GMP [1]) | normalized RNA/DNA level with ligand (log10) (cyclic di-GMP [2])
97 | UCCUGA | 1.69 ± 0.048 | 1.85 ± 0.1
98 | ACCGAG | 1.57 ± 0.031 | 1.74 ± 0.11
99 | ACCGAU | 1.48 ± 0.072 | 1.67 ± 0.091
100 | ACCGAC | 1.61 ± 0.06 | 1.77 ± 0.11
101 | UCCUAC | 1.75 ± 0.04 | 1.87 ± 0.14
102 | UCCUAU | 1.63 ± 0.085 | 1.8 ± 0.097
103 | UCCUAA | 1.63 ± 0.077 | 1.79 ± 0.067
104 | UCCUAG | 1.71 ± 0.018 | 1.82 ± 0.087
105 | GCCGAG | 1.65 ± 0.031 | 1.72 ± 0.091
106 | CCGCAG | 1.54 ± 0.054 | 1.67 ± 0.12
107 | CCGCAU | 1.6 ± 0.035 | 1.77 ± 0.096
108 | CCGCAA | 1.447 ± 0.014 | 1.68 ± 0.14
109 | ACGAAU | 1.31 ± 0.061 | 1.53 ± 0.079
110 | ACGAAC | 1.53 ± 0.11 | 1.72 ± 0.067
111 | ACGCAU | 1.42 ± 0.15 | 1.68 ± 0.075
112 | ACGCAA | 1.47 ± 0.075 | 1.64 ± 0.11
113 | ACGCAC | 1.61 ± 0.018 | 1.79 ± 0.11
114 | CCGAUU | 1.54 ± 0.052 | 1.73 ± 0.12
115 | CCGAUC | 1.55 ± 0.019 | 1.73 ± 0.094
116 | CCGAUA | 1.31 ± 0.13 | 1.54 ± 0.075

From the supplement of paper PMC6757056
